This note sets out measurements from publication PMC9072312, “Candida albicans evades NK cell elimination via binding of Agglutinin-Like Sequence proteins to the checkpoint receptor TIGIT” (Nature Communications, 2022).

In the test the target is T1, PVR-Ig (extracellular portion of human PVR fused to the Fc domain of human IgG1) (human, UniProt P15151 21-343).
T1 construct: PVR (poliovirus receptor), human ligand of TIGIT, extracellular portion; source: HEK293T, transfected (pIRESpuro3), secreted, purified (HiTrap Protein G HP)
T1 sequence: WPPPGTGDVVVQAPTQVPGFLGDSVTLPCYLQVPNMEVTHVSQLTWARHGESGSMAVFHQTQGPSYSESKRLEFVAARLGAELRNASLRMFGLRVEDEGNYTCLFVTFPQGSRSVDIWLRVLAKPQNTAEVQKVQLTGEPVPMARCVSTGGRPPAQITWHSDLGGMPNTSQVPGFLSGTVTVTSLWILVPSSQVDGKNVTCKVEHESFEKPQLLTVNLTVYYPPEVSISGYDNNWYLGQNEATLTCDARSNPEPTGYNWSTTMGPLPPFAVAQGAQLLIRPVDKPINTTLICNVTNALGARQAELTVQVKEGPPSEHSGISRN
In words: MST; RED-NHS labeled TIGIT-Ig at constant level, unlabeled Ig-fusion proteins serially diluted in 1x PBS; Monolith NT.115, 20% MST power, 95% LED power, standard capillaries, 25 °C. As to conditions: both partners purified.

B1: TIGIT-Ig (extracellular ligand-binding domain of human TIGIT fused to the Fc domain of human IgG1) (Fc fusion)
chain: MMTGTIETTGNISAEKGGSIILQCHLSSTTAQVTQVNWEQQDQLLAICNADLGWHISPSFKDRVAPGPGLGLTLQSLTVNDTGEYFCIYHTYPDGTYTGRIFLEVLESSVAEHGARFQIP
modifications: fluorescently labeled with the Monolith NT Protein Labeling Kit RED-NHS
notes: also called human TIGIT-Ig; T cell immunoreceptor with Ig and ITIM domains; source: HEK293T, transfected (pIRESpuro3), secreted, purified (HiTrap Protein G HP)
Consider B1, for which the binding result is “binds”.
